Experimental data taken from publication doi:10.1101/2022.10.10.511578 (bioRxiv, 2022).
Values belong to the binder of their own block, whether it stands above or below them. No end group written: not given here.

How the values were obtained:
[1] = molecular target: T1, arrestin2^1-418 (C150L, C242V, C251V, C269S) (human); assay: SEC
T1 chain: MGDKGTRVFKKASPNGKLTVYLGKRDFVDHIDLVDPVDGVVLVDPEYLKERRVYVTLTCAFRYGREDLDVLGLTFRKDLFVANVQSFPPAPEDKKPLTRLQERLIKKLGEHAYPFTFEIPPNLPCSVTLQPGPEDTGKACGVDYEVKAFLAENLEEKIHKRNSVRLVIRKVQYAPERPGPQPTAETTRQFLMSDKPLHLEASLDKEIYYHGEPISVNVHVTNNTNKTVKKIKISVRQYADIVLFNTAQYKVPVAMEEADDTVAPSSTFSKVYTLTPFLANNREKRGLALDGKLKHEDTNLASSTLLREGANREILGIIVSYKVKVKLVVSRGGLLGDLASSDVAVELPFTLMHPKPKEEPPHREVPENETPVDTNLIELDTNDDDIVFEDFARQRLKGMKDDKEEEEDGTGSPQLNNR

arrestin2^1-393 = molecular target: T2, arrestin2^1-393 (human); assay: NMR titration
T2 chain: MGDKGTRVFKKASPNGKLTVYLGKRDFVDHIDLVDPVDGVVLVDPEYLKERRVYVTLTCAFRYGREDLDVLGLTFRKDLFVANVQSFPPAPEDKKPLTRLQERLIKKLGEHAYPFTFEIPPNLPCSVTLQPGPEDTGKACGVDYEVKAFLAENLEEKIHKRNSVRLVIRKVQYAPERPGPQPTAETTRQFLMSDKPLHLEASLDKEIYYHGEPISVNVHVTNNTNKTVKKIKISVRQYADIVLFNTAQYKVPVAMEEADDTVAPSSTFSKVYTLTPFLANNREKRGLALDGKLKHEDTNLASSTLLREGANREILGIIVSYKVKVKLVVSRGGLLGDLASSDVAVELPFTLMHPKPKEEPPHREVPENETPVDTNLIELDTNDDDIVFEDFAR

arrestin2^1-359 = molecular target: T3, arrestin2^1-359 (human); assay: crystal structure
T3 chain: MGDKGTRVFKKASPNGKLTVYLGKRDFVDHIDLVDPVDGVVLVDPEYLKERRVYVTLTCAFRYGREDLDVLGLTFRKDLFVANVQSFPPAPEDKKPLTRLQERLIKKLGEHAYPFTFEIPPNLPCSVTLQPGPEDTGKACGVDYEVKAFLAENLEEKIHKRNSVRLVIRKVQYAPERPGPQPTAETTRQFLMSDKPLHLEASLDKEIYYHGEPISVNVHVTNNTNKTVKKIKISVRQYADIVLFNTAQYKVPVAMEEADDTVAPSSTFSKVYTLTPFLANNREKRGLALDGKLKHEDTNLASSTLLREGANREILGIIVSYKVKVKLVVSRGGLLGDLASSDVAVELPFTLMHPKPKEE

binding result [1]: binds
Kd (arrestin2^1-393): > 100 µM
fold lower affinity (than 6P or V2Rpp) (arrestin2^1-393): > 4 fold
Binder: APERASSVYTRSTGEQEISVGL (also: phosphopeptide (3P2), sites not given here) [CCR5 3P2 phosphopeptide]

Kd (arrestin2^1-393): > 100 µM
binding result (arrestin2^1-359): binds
Binder: APERASSVYTRSTGEQEISVGL (also: phosphopeptide (4P), sites not given here) [CCR5 4P phosphopeptide]

Kd (arrestin2^1-393): 147 ± 7 µM
Binder: APERASSVYTRSTGEQEISVGL (also: five-fold phosphorylated, lacking pT343, sites not given here) [CCR5 5P1 phosphopeptide]

Kd (arrestin2^1-393): 54 ± 6 µM
B1: CCR5 5P2 phosphopeptide (peptide)
peptide: APERASSVYTRSTGEQEISVGL
modifications: not fully specified; five-fold phosphorylated; comprising pT343; whole pattern in Figure 1C

binding result [1]: binds
Kd (arrestin2^1-393): 45 ± 6 µM
binding result (arrestin2^1-359): binds
Binder: APERASSVYTRSTGEQEISVGL (also: phosphopeptide (6P), sites not given here) [CCR5 6P phosphopeptide]

Kd (arrestin2^1-393): > 100 µM
Binder: APERASSVYTRSTGEQEISVGL (also: three-fold phosphorylated, sites not given here) [CCR5 3P1 phosphopeptide]
